From patent US20200385482A1 (Dana-Farber, published 2020) come the findings set out here.

In this experiment the target is T1, full length PD-L1 in the form of paramagnetic proteoliposomes (PMPL) (human, UniProt Q9NZQ7 19-290).
T1 construct: whole, on cells; Full length protein in proteoliposomes, not on cells; the form 'whole' is meant; also called proteoliposome-coupled-PD-L1
Put plainly: phage display panning on PD-L1 proteoliposomes.

T1 sequence (Q9NZQ7 19-290): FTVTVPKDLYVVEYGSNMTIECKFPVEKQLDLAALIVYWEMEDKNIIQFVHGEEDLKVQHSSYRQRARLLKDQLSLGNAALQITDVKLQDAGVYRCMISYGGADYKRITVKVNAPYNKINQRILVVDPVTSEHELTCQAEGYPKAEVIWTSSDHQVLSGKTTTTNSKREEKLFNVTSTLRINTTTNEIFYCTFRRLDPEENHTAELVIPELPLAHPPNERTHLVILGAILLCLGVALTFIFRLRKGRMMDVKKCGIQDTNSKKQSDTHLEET

B1: Ab-56 phage-scFv (scFv, V domains shown, not shown: large carriers; small tags and cut ends)
VH: EVQLVESGAEVMNPGSSVRVSCRGSGGDFSTYAFSWVRQAPGQGLEWMGRIIPILGIANYAQKFQGRVTITADKSTSTAYMELSSLRSDDTAVYYCARDGYGSDPVLWGQGTLVTVSS
VL: NFMLTQPHSVSGSPGKTVTLPCTRSSGSIASHYVQWYQQRPGSAPTTVIYEDNKRPSGVPDRFSGSIDSSSNSASLSISGLKTEDEADYYCQSYDSSNRWVFGGGTKLTVL
notes: also called Ab-56 scFv-phage
Regarding B1, the binding result was “binds”.

B2: Ab-46 phage-scFv (scFv, V domains shown, not shown: large carriers; small tags and cut ends)
VH: EVQLVESGAEVKKPGSSVKVSCKVSGGTFGTYALNWVRQAPGQGLEWMGRIVPLIGLVNYAHNFEGRISITADKSTGTAYMELSNLRSDDTAVYYCAREVYGGNSDYWGQGTLVTVSS
VL: NFMLTQPHSVSESPGKTVTISCTRSSGNIGTNYVQWYQQRPGSAPVALIYEDYRRPSGVPDRFSGSIDSSSNSASLIISGLKPEDEADYYCQSYHSSGWEFGGGTKLTVL
notes: also called Ab-46 scFv-phage
In the case of B2, the binding result was “binds”.
